Patent US20190375786A1, “STABLE PEPTIDES AND METHODS OF USE THEREOF” (Fred Hutchinson Cancer Research Center, priority 2016, published 2019)

How the values were obtained:
[1] = Resistance to reduction by DTT, RP-HPLC; type: physicochemical; conditions: 10 mM DTT in PBS, room temperature, 30 minutes; HPLC peak vs untreated peptide
Description: Peptides were first suspended in 500 ul of ddH2O to a stock concentration of 2 mg/ml. Reactions were prepared by adding 12.5 ug of peptide from the stock solution to a 10 mM solution of DTT in PBS and allowed to incubate at room temperature for 30 minutes. Other reactions were prepared with 12.5 μg peptide with or without 500 U/ml pepsin in simulated gastric fluid (SGF; pH 1.05; […] sodium chloride in 0.7% (v/v) hydrochloric acid) and were incubated for 30 minutes at 37.5° C. Some reactions were quenched with a final concentration of 100 mM Tris base and 10 mM dithiothreitol (DTT). Some reactions were performed in all of the above components, including simulated gastric fluid, pepsin, Tris, and DTT (referred to as SPTD). Reversed phase HPLC (RP-HPLC) was run on samples using an Agilent 1260 HPLC equipped with a C-18 Poroshell 120B column. Sample were analyzed by a gradient method with a mobile phase of Solvent A (water with 0.1% TFA) and Solvent B (acetonitrile with 0.1% TFA). Solvent B was ramped up from 5%-45% of the mobile phase over a period of 10 minutes. Peptides were detected at an absorbance of 214 nm and 280 nm.
Peptides were first suspended in 500 μl of ddH2O to a stock concentration of 2 mg/ml. Reactions were prepared by adding 12.5 μg of peptide from the stock solution to a 10 mM solution of DTT in PBS and allowed to incubate at room temperature for 30 minutes. Other reactions were prepared with 12.5 μg peptide and 500 U/ml trypsin in 25 mM Tris/75 mM NaCl buffer (pH 7.0) and incubated for 30 minutes at 37.5° C. These reactions were then quenched with 5 μg of soybean trypsin inhibitor (I) and, in some cases, 10 mM dithiothreitol (DTT). Reversed phase HPLC (RP-HPLC) was run on samples using an Agilent 1260 HPLC equipped with a C-18 Poroshell 120B column. Sample were analyzed by a gradient method with a mobile phase of Solvent A (water with 0.1% TFA) and Solvent B (acetonitrile with 0.1% TFA). Solvent B was ramped up from 5%-45% of the mobile phase over a period of 10 minutes. For testing pepsin digestion resistance, reactions were prepared with 12.5 μg peptide with or without 500 U/ml pepsin in simulated gastric fluid (SGF; pH 1.05; […] sodium chloride in 0.7% (v/v) hydrochloric acid) and were incubated for 30 minutes at 37.5° C. For testing temperature resistance, peptides were incubated at 70° C., 75° C., or 100° C. for one hour in 0.5 mM PBS, pelleted, and then the supernatant was analyzed by HPLC.
This example illustrates peptide stability in biological conditions including in the presence of reducing agents, proteases, oxidative conditions, acidic conditions, and simulated gastric fluids. […] Various peptides were suspended in 500 μl of ddH2O at a stock concentration of 2 mg/ml. This was then diluted in accord with the reaction conditions to prevent adverse buffering effects. Reactions were prepared with 12.5 μg peptide dissolved in solution and, in some samples, additionally suspended in a 10 mM solution of DTT, simulated gastric fluid (pH 1.05; […] sodium chloride in 0.7% (v/v) hydrochloric acid), 500 U pepsin (5000 U/ml pepsin), 50 U trypsin (500 U/ml trypsin) with 1 mg/ml inhibitor in PBS, or a combination of any of these conditions. All protease reactions were incubated for 30 min at room temperature and then quenched. Pepsin reactions were quenched by adding Tris base to a final concentration of 0.075 M. Trypsin reactions were quenched by adding excess soybean trypsin inhibitor. RP-HPLC was then run on samples using an Agilent 1260 HPLC equipped with a C-18 Poroshell 120B column. Sample were analyzed by a gradient method with a mobile phase of Solvent A (water with 0.1% TFA) and Solvent B (acetonitrile with 0.1% TFA). Solvent B was ramped up from 5%-45% of the mobile phase over a period of 10 minutes.
FIG. 18 illustrates high performance liquid chromatograph (HPLC) traces of peptides in non-reducing (NR) conditions (solid trace) or in 10 mM DTT reducing (R) conditions (dashed trace). […]

[2] = Resistance to elevated temperature, HPLC; type: physicochemical; conditions: HPLC peak vs untreated peptide; for Resistance to Temperature (75° C.): 75° C. for one hour; for Resistance to Temperature (100° C.): 100° C. for one hour
Procedure, shortened: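 Peptides were incubated at room temperature, 70° C or 100° C for one hour in ddH2O; another protocol used 70° C, 75° C or 100° C for one hour in 0.5 mM PBS, then pelleting and analysis of the supernatant. Remaining peptide was measured by C-18 RP-HPLC, 5–45% acetonitrile/0.1% TFA over 10 min.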

pepsin = pepsin (Sus scrofa, UniProt P00791); assay: Pepsin digestion resistance in simulated gastric fluid, RP-HPLC; type: in vitro ADME, porcine; set-up: purchased Sigma Aldrich P7012; conditions: 500 U/ml pepsin in SGF pH 1.05, 30 minutes at 37.5° C.; HPLC peak vs untreated peptide
Procedure, shortened: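 Peptide (12.5 μg) incubated 30 min at 37.5 °C with or without 500 U/ml pepsin in simulated gastric fluid (pH 1.05; 2% NaCl in 0.7% HCl); some reactions quenched with 100 mM Tris and 10 mM DTT. Intact peptide followed by C-18 RP-HPLC (5–45% acetonitrile/0.1% TFA over 10 min) at 214 and 280 nm.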

trypsin = trypsin (Sus scrofa, UniProt P00761); assay: Trypsin digestion resistance of soluble peptide, RP-HPLC; type: in vitro ADME, porcine; set-up: purchased Sigma Aldrich 6567; conditions: 500 U/ml trypsin, 30 minutes at 37.5° C.; HPLC peak vs untreated peptide
Procedure, shortened: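 12.5 μg soluble peptide digested with 500 U/ml porcine trypsin in PBS, 30 min at 37.5° C; quenched with soybean trypsin inhibitor, with or without 10 mM DTT reduction afterwards. Intact peptide assessed by C-18 RP-HPLC, 5-45% acetonitrile/0.1% TFA gradient over 10 min.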

pepsin, sequence (P00791 60-385): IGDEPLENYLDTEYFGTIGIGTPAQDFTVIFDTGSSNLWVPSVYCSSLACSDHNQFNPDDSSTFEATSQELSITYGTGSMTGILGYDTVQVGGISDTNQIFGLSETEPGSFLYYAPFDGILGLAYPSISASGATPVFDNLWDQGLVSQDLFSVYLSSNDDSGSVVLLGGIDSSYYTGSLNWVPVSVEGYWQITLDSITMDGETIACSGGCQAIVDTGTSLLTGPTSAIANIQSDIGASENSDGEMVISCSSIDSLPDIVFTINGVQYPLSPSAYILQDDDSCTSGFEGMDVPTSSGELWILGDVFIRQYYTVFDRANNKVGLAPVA
trypsin, sequence (P00761 9-231): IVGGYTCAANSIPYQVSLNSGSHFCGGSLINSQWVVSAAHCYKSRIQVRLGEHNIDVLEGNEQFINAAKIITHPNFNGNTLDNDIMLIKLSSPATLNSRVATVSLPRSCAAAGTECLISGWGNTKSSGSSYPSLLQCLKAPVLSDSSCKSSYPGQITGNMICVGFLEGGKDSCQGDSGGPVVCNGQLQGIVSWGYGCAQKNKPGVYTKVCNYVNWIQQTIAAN

| Substance | Resistance to DTT Reduction (10 mM) [1] | Resistance to Temperature (75° C.) [2] | Resistance to Temperature (100° C.) [2] | Resistance to Pepsin (500 U/ml) (pepsin) | Resistance to Trypsin (500 U/ml) (trypsin) | Resistance to Temperature (70° C.) ([2]; 70° C. for one hour) |
| --- | --- | --- | --- | --- | --- | --- |
| 14 (GSSDYCSNDFCFFSCRRDRCARGDCENGKCVCKNCHLN) [compound 14] | Low (A peptide classified as low indicates that the majority (over 75%) of the HPLC peak of the treated peptide disappeared as compared to the HPLC peak of the untreated peptide) | High (A peptide classified as high indicates that the majority (at least 75%) of the HPLC peak of the treated peptide is still present as compared to the HPLC peak of the untreated peptide) | High (A peptide classified as high indicates that the majority (at least 75%) of the HPLC peak of the treated peptide is still present as compared to the HPLC peak of the untreated peptide) | Moderate (A peptide classified as medium indicates that about half (between 25% and 75%) of the HPLC peak of the treated peptide disappeared as compared to the HPLC peak of the untreated peptide) | Low (A peptide classified as low indicates that the majority (over 75%) of the HPLC peak of the treated peptide disappeared as compared to the HPLC peak of the untreated peptide) | – |
| 23 (GSEVIRCSGSKQCYGPCKQQTGCTNSKCMNKVCKCYGCG) [compound 23] | Low (A peptide classified as low indicates that the majority (over 75%) of the HPLC peak of the treated peptide disappeared as compared to the HPLC peak of the untreated peptide) | High (A peptide classified as high indicates that the majority (at least 75%) of the HPLC peak of the treated peptide is still present as compared to the HPLC peak of the untreated peptide) | Low (A peptide classified as low indicates that the majority (over 75%) of the HPLC peak of the treated peptide disappeared as compared to the HPLC peak of the untreated peptide) | High (A peptide classified as high indicates that the majority (at least 75%) of the HPLC peak of the treated peptide is still present as compared to the HPLC peak of the untreated peptide) | Low (A peptide classified as low indicates that the majority (over 75%) of the HPLC peak of the treated peptide disappeared as compared to the HPLC peak of the untreated peptide) | – |
| 32 (GSSCAKPRENCNRMNILCCRGECVCPTFGDCFCYGD) [compound 32] | Low (A peptide classified as low indicates that the majority (over 75%) of the HPLC peak of the treated peptide disappeared as compared to the HPLC peak of the untreated peptide) | High (A peptide classified as high indicates that the majority (at least 75%) of the HPLC peak of the treated peptide is still present as compared to the HPLC peak of the untreated peptide) | High (A peptide classified as high indicates that the majority (at least 75%) of the HPLC peak of the treated peptide is still present as compared to the HPLC peak of the untreated peptide) | High (A peptide classified as high indicates that the majority (at least 75%) of the HPLC peak of the treated peptide is still present as compared to the HPLC peak of the untreated peptide) | Low (A peptide classified as low indicates that the majority (over 75%) of the HPLC peak of the treated peptide disappeared as compared to the HPLC peak of the untreated peptide) | High (A peptide classified as high indicates that the majority (at least 75%) of the HPLC peak of the treated peptide is still present as compared to the HPLC peak of the untreated peptide) |
| 52 (GSEGDCPISEAIKCVEKCKEKVEVCEPGVCKCSG) [compound 52] | Low (A peptide classified as low indicates that the majority (over 75%) of the HPLC peak of the treated peptide disappeared as compared to the HPLC peak of the untreated peptide) | High (A peptide classified as high indicates that the majority (at least 75%) of the HPLC peak of the treated peptide is still present as compared to the HPLC peak of the untreated peptide) | High (A peptide classified as high indicates that the majority (at least 75%) of the HPLC peak of the treated peptide is still present as compared to the HPLC peak of the untreated peptide) | High (A peptide classified as high indicates that the majority (at least 75%) of the HPLC peak of the treated peptide is still present as compared to the HPLC peak of the untreated peptide) | Low (A peptide classified as low indicates that the majority (over 75%) of the HPLC peak of the treated peptide disappeared as compared to the HPLC peak of the untreated peptide) | – |
| 50 (GSLFCKGGSCHFGGCPSHLIKVGSCFGFRSCCKWPWNA) [compound 50] | Low (A peptide classified as low indicates that the majority (over 75%) of the HPLC peak of the treated peptide disappeared as compared to the HPLC peak of the untreated peptide) | High (A peptide classified as high indicates that the majority (at least 75%) of the HPLC peak of the treated peptide is still present as compared to the HPLC peak of the untreated peptide) | Low (A peptide classified as low indicates that the majority (over 75%) of the HPLC peak of the treated peptide disappeared as compared to the HPLC peak of the untreated peptide) | Low (A peptide classified as low indicates that the majority (over 75%) of the HPLC peak of the treated peptide disappeared as compared to the HPLC peak of the untreated peptide) | Low (A peptide classified as low indicates that the majority (over 75%) of the HPLC peak of the treated peptide disappeared as compared to the HPLC peak of the untreated peptide) | – |
